The values below come from the supplement of paper PMC7125110.

± gives the standard error. For some of these results: Fewer inactive variants are shown than the library holds.

The labels stand for the following.
B1: glmS ribozyme (parent)
chain: AUAAAAGCGCCAGAACUACAGAAAUGUAGUUGACGAGGAGGAGGUUUAUCGAAUUUUCGGCGGAUGCCUCCAAA

Common to all, as to settings: with glucosamine-6-phosphate
In series [1] the parent is B1. Nature of the series: kcat; higher = faster cleavage; RNA array. The essentials: (§1)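 E. coli RNA polymerase transcribed barcoded ribozyme variants in situ on sequenced MiSeq chips, which were tracked via a hybridised Cy3 probe at 37 °C. Tiles were imaged over ~14 h after glucosamine-6-phosphate (40 μM to 10 mM) in HEPES/KCl/Mg(OAc)2 buffer was flowed in. Normalised per-tile medians were fit to one- or two-exponential decays for kobs, and kcat and KM came from weighted Michaelis–Menten fits.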

Variants of B1 are the subject of series [2]. Nature of the series: KM; higher = weaker cofactor use; RNA array. The essentials:
as §1

The variants in series [3] derive from B1. Nature of the series: self-cleavage kobs at 640 uM GlcN6P; higher = faster cleavage; RNA array. The essentials:
as §1

Variants of B1 are the subject of series [4]. Nature of the series: self-cleavage kobs at 2500 uM GlcN6P; higher = faster cleavage; RNA array. The essentials: as §1
The variants in series [5] derive from B1. Nature of the series: self-cleavage kobs at 10000 uM GlcN6P; higher = faster cleavage; RNA array. In a few lines: as §1
Variants of B1 are the subject of series [6]. Nature of the series: self-cleavage kobs at 160 uM GlcN6P; higher = faster cleavage; RNA array. In a few lines:
as §1

In series [7] the parent is B1. Put plainly: self-cleavage kobs at 40 uM GlcN6P; higher = faster cleavage; RNA array. In a few lines:
as §1

In general, kcat refers to the maximal rate divided by the concentration of active sites. With U31G G43A, the kcat in series [1] worked out at 1.25e-05 ± 3.3e-06 s⁻¹.

Broadly, the KM is the concentration of substrate that gives half-maximal velocity. With C50A, the kcat in series [1] is 2.67e-05 ± 8.3e-07 s⁻¹. Besides, the KM in series [2] worked out at 579 ± 130 µM. In addition, the “self-cleavage kobs at 640 uM GlcN6P” value in series [3] worked out at 1.25e-05 ± 3.1e-06 s⁻¹. For the same variant, the “self-cleavage kobs at 2500 uM GlcN6P” value in series [4] is 2.31e-05 ± 2.1e-06 s⁻¹. The “self-cleavage kobs at 10000 uM GlcN6P” value in series [5] stood at 2.49e-05 ± 1.3e-06 s⁻¹.

As to C50U, in series [1], the turnover number (kcat) came to 0.000131 ± 9.2e-06 s⁻¹. Further, the Michaelis constant (KM) in series [2] was determined as 3300 ± 600 µM. The “self-cleavage kobs at 640 uM GlcN6P” value in series [3] is 2.57e-05 ± 1.5e-06 s⁻¹. In addition, in series [4], the “self-cleavage kobs at 2500 uM GlcN6P” value worked out at 5.29e-05 ± 1.6e-06 s⁻¹. Further, the “self-cleavage kobs at 10000 uM GlcN6P” value in series [5] stood at 9.95e-05 ± 1.6e-06 s⁻¹.

As to A52G A53G, the catalytic constant (kcat) in series [1] turned out to be 0.00183 ± 0.00052 s⁻¹. For the same variant, the Michaelis constant (KM) in series [2] stood at 3690 ± 1700 µM. Further, the “self-cleavage kobs at 160 uM GlcN6P” value in series [6] was 0.000131 ± 3e-05 s⁻¹. Moreover, in series [3], the “self-cleavage kobs at 640 uM GlcN6P” value came to 0.000264 ± 5.9e-05 s⁻¹. Besides, the “self-cleavage kobs at 2500 uM GlcN6P” value in series [4] was found to be 0.000638 ± 0.0001 s⁻¹. Further, the “self-cleavage kobs at 10000 uM GlcN6P” value in series [5] came out at 0.00145 ± 0.0002 s⁻¹.

As for C11A A52U C67G, the turnover number (kcat) in series [1] amounted to 2.85e-05 ± 4.6e-06 s⁻¹.

C11A G62A: the turnover number (kcat) in series [1] turned out to be 1.14e-05 ± 2e-06 s⁻¹.

In the case of U57G G66A, the catalytic constant (kcat) in series [1] was found to be 2.15e-05 ± 3.2e-06 s⁻¹. In addition, the “self-cleavage kobs at 40 uM GlcN6P” value in series [7] is less than 1e-05 s⁻¹.

On to U49A U69A, for which the turnover number (kcat) in series [1] is 5.14e-05 ± 1.9e-05 s⁻¹.

As to U55C C58A, the kcat in series [1] was 0.000437 ± 0.00015 s⁻¹. Besides, in series [6], the “self-cleavage kobs at 160 uM GlcN6P” value stood at 4.03e-05 ± 1.3e-05 s⁻¹. Further, the “self-cleavage kobs at 640 uM GlcN6P” value in series [3] amounted to 9.55e-05 ± 1.2e-05 s⁻¹. Also, the “self-cleavage kobs at 2500 uM GlcN6P” value in series [4] turned out to be 0.000175 ± 2.3e-05 s⁻¹. In addition, the “self-cleavage kobs at 10000 uM GlcN6P” value in series [5] worked out at 0.000455 ± 6.7e-05 s⁻¹.

As to A64C, in series [1], the kcat stood at 0.000188 ± 1.2e-05 s⁻¹. Further, the KM in series [2] is 1610 ± 260 µM. In addition, in series [6], the “self-cleavage kobs at 160 uM GlcN6P” value is 1.42e-05 ± 3e-06 s⁻¹. In addition, in series [3], the “self-cleavage kobs at 640 uM GlcN6P” value was 5.05e-05 ± 1.6e-06 s⁻¹. For the same variant, the “self-cleavage kobs at 2500 uM GlcN6P” value in series [4] came to 0.000127 ± 3e-06 s⁻¹. For the same variant, the “self-cleavage kobs at 10000 uM GlcN6P” value in series [5] is 0.000157 ± 2.8e-06 s⁻¹.

Regarding G44U A53G, the turnover number (kcat) in series [1] was 0.000308 ± 2.1e-05 s⁻¹. The Michaelis constant (KM) in series [2] came to 997 ± 240 µM. The “self-cleavage kobs at 160 uM GlcN6P” value in series [6] turned out to be 3.95e-05 ± 1.8e-05 s⁻¹. Also, the “self-cleavage kobs at 2500 uM GlcN6P” value in series [4] came to 0.000223 ± 6e-05 s⁻¹. Further, the “self-cleavage kobs at 10000 uM GlcN6P” value in series [5] is 0.00028 ± 3.8e-05 s⁻¹.

Turning to G29C U54G, in series [1], the kcat came out at 0.000894 ± 0.00025 s⁻¹. The “self-cleavage kobs at 40 uM GlcN6P” value in series [7] was determined as 6e-05 ± 1.7e-05 s⁻¹. In addition, the “self-cleavage kobs at 640 uM GlcN6P” value in series [3] is 0.000289 ± 6.5e-05 s⁻¹. In addition, the “self-cleavage kobs at 2500 uM GlcN6P” value in series [4] stood at 0.00051 ± 0.00013 s⁻¹. In series [5], the “self-cleavage kobs at 10000 uM GlcN6P” value was 0.000918 ± 0.00014 s⁻¹.

In the case of A12G G32C C68G, the catalytic constant (kcat) in series [1] stood at 1.4e-05 ± 2.2e-06 s⁻¹.

As to A52G C70U C71G, in series [1], the kcat stood at 2.63e-05 ± 1.1e-05 s⁻¹. Besides, the “self-cleavage kobs at 2500 uM GlcN6P” value in series [4] was 4.78e-05 ± 1.9e-05 s⁻¹.

As to G37C C67A, in series [1], the kcat is less than 1e-05 s⁻¹. In series [2], the Michaelis-Menten constant (KM) was found to be 2800 ± 950 µM. In series [6], the “self-cleavage kobs at 160 uM GlcN6P” value is less than 1e-05 s⁻¹.

C10A C50U: the catalytic constant (kcat) in series [1] was less than 1e-05 s⁻¹. Also, in series [5], the “self-cleavage kobs at 10000 uM GlcN6P” value was less than 1e-05 s⁻¹.

Regarding U30C C58G C68A, in series [1], the turnover number (kcat) stood at 5.09e-05 ± 2.1e-05 s⁻¹. Also, the “self-cleavage kobs at 640 uM GlcN6P” value in series [3] was 9.15e-05 ± 3.9e-05 s⁻¹. Moreover, in series [4], the “self-cleavage kobs at 2500 uM GlcN6P” value turned out to be 7.09e-05 ± 1.9e-05 s⁻¹.

On to A53G C61U, for which, in series [1], the catalytic constant (kcat) worked out at 2.57e-05 ± 1e-06 s⁻¹. In addition, the “self-cleavage kobs at 40 uM GlcN6P” value in series [7] was less than 1e-05 s⁻¹.

For the variant A12G C71U, the kcat in series [1] turned out to be 0.00146 ± 0.0001 s⁻¹. In addition, the KM in series [2] was 4370 ± 470 µM. Further, in series [6], the “self-cleavage kobs at 160 uM GlcN6P” value was 5.89e-05 ± 1.1e-05 s⁻¹. The “self-cleavage kobs at 640 uM GlcN6P” value in series [3] worked out at 0.000183 ± 1.9e-05 s⁻¹. Besides, the “self-cleavage kobs at 2500 uM GlcN6P” value in series [4] came to 0.000525 ± 4.6e-05 s⁻¹. Moreover, the “self-cleavage kobs at 10000 uM GlcN6P” value in series [5] amounted to 0.00102 ± 8.1e-05 s⁻¹.

A39G U56A U57G G60U C67U C70U: the kcat in series [1] was found to be 1.31e-05 ± 5.3e-06 s⁻¹.

Turning to A15U G59U, the catalytic constant (kcat) in series [1] was less than 1e-05 s⁻¹. Moreover, in series [7], the “self-cleavage kobs at 40 uM GlcN6P” value is less than 1e-05 s⁻¹. The “self-cleavage kobs at 160 uM GlcN6P” value in series [6] was less than 1e-05 s⁻¹.

For the variant U46G U54A, in series [1], the turnover number (kcat) worked out at 0.00945 ± 0.0015 s⁻¹. Moreover, the Michaelis constant (KM) in series [2] came out at 2450 ± 490 µM. Moreover, the “self-cleavage kobs at 40 uM GlcN6P” value in series [7] was 0.000165 ± 2.1e-05 s⁻¹. Further, the “self-cleavage kobs at 160 uM GlcN6P” value in series [6] amounted to 0.000444 ± 0.00011 s⁻¹. Moreover, the “self-cleavage kobs at 640 uM GlcN6P” value in series [3] came out at 0.00207 ± 0.00034 s⁻¹. Further, the “self-cleavage kobs at 2500 uM GlcN6P” value in series [4] stood at 0.00434 ± 0.0016 s⁻¹. The “self-cleavage kobs at 10000 uM GlcN6P” value in series [5] is 0.00766 ± 0.0012 s⁻¹.
